Substrate in data set [1]: PET
Briefly: Proxy for plastic degradation [Released monomer concentration (HPLC/LC-MS) (TPA+MHET)].

Data set [2] is described as follows: Proxy for plastic degradation [UPLC/UHPLC]. The note with it: pH 9.
Substrate in the next data set: pNPB
Briefly: Proxy for plastic degradation [Absorbance @ 430nm] (min⁻¹). To be noted: pH 8; part of the chain shown.

Substrate in data set [3]: PET
The experiment in a line: Proxy for plastic degradation [Released monomer concentration (HPLC/LC-MS) (MHET+TPA)]. The note with it: pH 9, part of the chain shown.

Substrate in data set [4]: PET
The experiment in a line: Proxy for plastic degradation [kcat/Km (catalytic efficiency)] (mM⁻¹s⁻¹). To be noted: pH 8.

A short description of data set [5]: Proxy for plastic degradation [Released monomer concentration (HPLC/LC-MS) (TPA+MHET)].

Substitutions are numbered along the chain they refer to.

B1: unnamed (protein)
chain: MAVITPRRERSSLLSRALRFTAAAATALVTAVSLAAPAHAANPYERGPNPTDALLEARSGPFSVSEERASRFGADGFGGGTIYYPRENNTYGAVAISPGYTGTQASVAWLGKRIASHGFVVITIDTNTTLDQPDSRARQLNAALDYMINDASSAVRSRIDSSRLAVMGHSMGGGGSLRLASQRPDLKAAIPLTPWHLNKNWSSVRVPTLIIGADLDTIAPVLTHARPFYNSLPTSISKAYLELDGATHFAPNIPNKIIGKYSVAWLKRFVDNDTRYTQFLCPGPRDGLFGEVEEYRSTCPF
Regarding B1, the “Proxy for plastic degradation” value with PET [1] (30 °C) was 2.77 µM; in the data set with PET [1] (40 °C), 2.15 µM; with PET [1] (50 °C), 2.1 µM; with PET [1] (55 °C) it was 2.23 µM; with PET [1] (60 °C), 0 µM.

B2: unnamed (protein)
chain: MNAPLFKLAALTLGLSLASVVLANNPGGGGGTAPDTGTGFPGVSNFSASGSFATTSGSAGASCTVFRPSTLGANNRKHPIIVWGNGTTASPNTYASLLQHWASHGFVVIAANTSNAGTGQEMLGCVDYLTTQNNRSTGTYAGKLDLNRIGAAGHSQGGGGTIMAGQDYRIKVTAPFQPYTIGLGHNSSSQSNQNGPMFLMTGSIDTIASPTLNALPVYTRANVPVFWGELSGASHFEPVGNAGDFRGPATAWFRYHLMDDASAEDTFYGSNCDLCTDRDWDVRRKGIN
On to B2, for which the “Proxy for plastic degradation” value in data set [2] (30 °C) is 8.31 µM; in data set [2] (40 °C) it was 9.03 µM; in data set [2] (50 °C), 9.57 µM; in data set [2] (55 °C) it was 9.09 µM; in data set [2] (60 °C), 9.47 µM.

B3: unnamed (protein)
chain: MQDNSDGRYRPEGRTFARGAANLFDDRLFEARTYVTGTDVAEFASATIFYPLTLSFDLPNGVVVMSPGYTGTPESYDWWGPMLASVGIITAIIETNTPEDNLEQRKNALIAGIELIKRENANSASPINNKVDESQIAIMGHSLGGGASLRAAEELEGDIKAVIPLTPYCCELGQSFEGDLKGVSTPTLIIAAADDTIAPPETHSRLLYDEINSSTNKVYLEFAEGAHGLPTNQGSEFQTQGTYVYAFLKANFTNDSKYSDFIGGDGEDSFSSYETN
B3: the “Proxy for plastic degradation” value in data set [2] (30 °C) is 15.4 µM; in data set [2] (40 °C), 15.5 µM; in data set [2] (50 °C), 15.5 µM; in data set [2] (55 °C), 16.6 µM; in data set [2] (60 °C), 16.1 µM.

B4: unnamed (protein)
chain: APPDYGLPGSYPVAYSDVTAVAGGRSVPARVHYPATTSGTNQPVATGRFPVIA
Turning to B4, the “Proxy for plastic degradation” value was 13000 with pNPB; 13 µM with PET [3] (30 °C); 18 µM with PET [3] (40 °C); 16.6 µM with PET [3] (50 °C); 16.2 µM with PET [3] (55 °C); 16.5 µM with PET [3] (60 °C).

B5: unnamed (protein)
chain: MSHRFRLAAAVCVAAAILVPATPAAAADPWDAPGPYATAVQIGAVNTLYYPRDIASSPRRHPVIVWGNGTGAAPLVYRDLLLYWASHGFIVSAANTPASNLGISMRLGIDALAAADADPGSIFRGKVDLAHIGASGHSQGGAAAIVVGADPRIDAILPIQPGPLADIDDVHVPALLLAGQHDSIVFPFLVKAFYNDATHIPAIYAEVRGADHFTVVGDPGPFAAPTTAWFRFQLMGDTAARAEFYGPSCGICTDTRTWSDVRRNALVP
On to B5, for which the “Proxy for plastic degradation” value in data set [2] (30 °C) was 13 µM; in data set [2] (40 °C), 13.4 µM; in data set [2] (50 °C), 14.2 µM; in data set [2] (55 °C), 13.4 µM; in data set [2] (60 °C), 14.1 µM.

B6: unnamed (protein)
chain: MRARIAALVAVPFLGAGAFAVSSVAAGDPPAVRTVPAAAAAPVDWSKTGPHQVKVDKADAHTIYRPSDLGSGGVKNPVVIWGNGTGATPAAYDGLLRHWASHGFVVAAANTKQANNGNAMRAGLDLVTKWNTTSSSPYYGKVDVSRVASSGHSQGGAGAMNAAVDTRVDAVLPIQPGPLAAPRKFKQPTFYMAGQNDRVVWPSWVRNFYNKSGHLPAVFGVVRGATHVAPAGDGGAFRGPTTAWLSFTLRGDASARAQFAGASCGYCGASSPFSNWLRNTRFTSQNG
Consider B6, for which the “Proxy for plastic degradation” value in data set [2] (30 °C) is 12.7 µM; in data set [2] (40 °C), 12.6 µM; in data set [2] (50 °C) it was 15.7 µM; in data set [2] (55 °C), 16 µM; in data set [2] (60 °C), 16.4 µM.

B7: unnamed (protein)
chain: MAVMTPRRERSSLLSRALQVTAAAATALVTAVSLAAPAHAANPYERGPNPTDALLEASSGPFSVSEENVSRLSASGFGGGTIYYPRENNTYGAVAISPGYTGTEASIAWLGERIASHGFVVITIDTITTLDQPDSRAEQLNAALNHMINRASSTVRSRIDSSRLAVMGHSMGGGGTLRLASQRPDLKAAIPLTPWHLNKNWSSVTVPTLIIGADLDTIAPVATHAKPFYNSLPSSISKAYLELDGATHFAPNIPNKIIGKYSVAWLKRFVDNDTRYTQFLCPGPRDGLFGEVEEYRSTCPF
With B7, the “Proxy for plastic degradation” value in the data set with PET [1] (30 °C) was found to be 7.78 µM; in the data set with PET [1] (40 °C), 26.7 µM; with PET [1] (50 °C), 124 µM; with PET [1] (55 °C) it was 850 µM; in the data set with PET [1] (60 °C), 140 µM.

B8: unnamed (protein)
chain: MKTNRRTLMLTGIAMTIGTAGRAAQATPEFKPQPGPLSIKSAAAISFRVEDQAKDLQIRVTYPDGPGPWPAIIFSHGAMSSKDFYNRVADHWATHGYATILPTHLDSESLGYSFKNPLPREKVFFGRIGDMQFILNHLDEIAGKAGIAGKIEKTKLAVAGHSFGGWTSLILAGLPVKMPDGSLKSFADSRIKALVSYNGIGPMDEIPDAAWAKVAIPVFAASGTNDPGATGSGPVHPWRWRIGAYDYAGSKEKYAVSITMGDHYYGGLICREGAGGKPDPEGLSFVNGSSTAFMDAYLKDDKSAKKFLRTADLRPLTNDRAFLERS
With B8, the “Proxy for plastic degradation” value in data set [2] (30 °C) was 15.7 µM; in data set [2] (40 °C), 12.8 µM; in data set [2] (50 °C) it was 17.3 µM; in data set [2] (55 °C) it was 17.3 µM; in data set [2] (60 °C), 17.2 µM.

B9: unnamed (protein)
chain: MLSKRGILGALAGGAVAVGCLTAPAHAAGFEKGPDPTTASVTADRGSYDIAQVDVPKGSGTGFADGTIYYPKSTADGTFGAVAVIPGFLEPKSAIDWYGPRLASQGFVVMTLDTTSVFDTPDSRGGQLLAALDYLTSKSTVKDRIDPNRLAVVGHSMGGGGTLSAAANRPNLKAAVALAPWHVSAPLTSVKTPTMIFGSDNDFIAPDGTFAKPFYDGISNAPEKAYVRLKNAGHMAYVFPDKRIAEYTLSWLKRYVDDDTRYTQFLCPGPTNESTIAAYKSTCPM
Regarding B9, the “Proxy for plastic degradation” value came to 14.7 µM in data set [2] (30 °C); 14.2 µM in data set [2] (40 °C); 14.1 µM in data set [2] (50 °C); 14.4 µM in data set [2] (55 °C); 15 µM in data set [2] (60 °C).

B10: unnamed (protein)
chain: MRVLAMTLALVASTLATPTALAAPPDYGLPGSYPVAYSDVTAVAGGRSVPARVHYPATTSGTNQPVATGRFPVIAFGHGFFQATSKYTSTSTHLASWGFVVVVPTTQGGLSPSHGAFADDLNTGLTWLVAQDGTTGSRFRDHITTTALGVSGHSMGGGAAVLAAARNPKIKAVSTYAAAETNPSAKAAAATLAAPAQFLAGSQDTITPVGDHQRPMFTAKPPARQLRTITGGFHCGFMDSSGLFCDNGSITRAAQLTASKRVMTSWFRHYLSGDTAARDLVWGQPARTDPAVVFEGTE
On to B10, for which the “Proxy for plastic degradation” value was determined as 13 µM in data set [2] (30 °C); 18 µM in data set [2] (40 °C); 16.6 µM in data set [2] (50 °C); 16.2 µM in data set [2] (55 °C); 16.5 µM in data set [2] (60 °C).

B11: unnamed (protein)
chain: MGGGGEDNVFAEPGDFDVVTEPGGRDCTIFRPEQLGDDHAVVIWGNGTGASPNTYAGLLRHYASHGFVVVAANTSNAGTGEDMLNCLDFLEGSQLASSVDFSKVGATGHSQGGGGAIMAGVDPRIATTAPIEGFTLGLGHDRDSHDQQNGPMLILSGSADRLVNPRTNHAPLFDATNVPAFWAIAQGAGHFEPVGDGGDFRGISTAWFLFQLEDDPEATTHFVGDDCFVCEDPGFDVEGVKEID
For B11, the “Proxy for plastic degradation” value in data set [2] (30 °C) turned out to be 14 µM; in data set [2] (40 °C), 13.8 µM; in data set [2] (50 °C), 15.8 µM; in data set [2] (55 °C), 14.4 µM; in data set [2] (60 °C) it was 14.9 µM.

B12: unnamed (protein)
chain: MNFPRASRLMQAAVLGGLMAVSAAATAQTNPYARGPNPTAASLEASAGPFTVRSFTVSRPSGYGAGTVYYPTNAGGTVGAIAIVPGYTARQSSIKWWGPRLASHGFVVITIDTNSTLDQPSSRSSQQMAALRQVASLNGTSSSPIYGKVDTARMGVMGWSMGGGGSLISAANNPSLKAAAPQAPWDSSTNFSSVTVPTLIFACENDSIAPVNSSALPIYDSMSRNAKQFLEINGGSHSCANSGNSNQALIGKKGVAWMKRFMDNDTRYSTFACENPNSTRVSDFRTANCS
B12: the “Proxy for plastic degradation” value in data set [2] (30 °C, part of the chain shown) was 37.5 µM; in data set [2] (40 °C, part of the chain shown), 31.2 µM; in data set [2] (50 °C, part of the chain shown) it was 18 µM; in data set [2] (55 °C, part of the chain shown), 15.4 µM; in data set [2] (60 °C, part of the chain shown) it was 15.6 µM; with pNPB it was 18300. The “Proxy for plastic degradation” value with PET [1] (30 °C, part of the chain shown) worked out at 37.5 µM; with PET [1] (40 °C, part of the chain shown), 31.2 µM; with PET [1] (50 °C, part of the chain shown), 18 µM; with PET [1] (55 °C, part of the chain shown), 15.6 µM; with PET [1] (60 °C, part of the chain shown) it was 0 µM; in the data set with PET [1] (pH 9, 30 °C, 24 h, part of the chain shown), 70.2 µM. The “Proxy for plastic degradation” value with PET [1] (pH 9, 30 °C, 48 h, part of the chain shown) was 69.5 µM; with PET [1] (pH 9, 30 °C, 72 h, part of the chain shown) it was 15.4 µM; in the data set with PET [3] (30 °C), 37.5 µM; with PET [3] (40 °C), 31.2 µM; in the data set with PET [3] (50 °C), 18 µM; in the data set with PET [3] (55 °C) it was 15.4 µM. Also, the “Proxy for plastic degradation” value with PET [3] (60 °C) came out at 15.6 µM.

B13: unnamed (protein)
chain: B12 chain with S121E, D186H, R224Q, N233K, R280A
B13: the “Proxy for plastic degradation” value was found to be 0.141 with PET [4]; 213 µM in data set [5] (30 °C); 272 µM in data set [5] (40 °C); 2110 µM in data set [5] (50 °C); 58 µM in data set [5] (60 °C).

The values are drawn from the PETadex activity labels (doi:10.1038/s41467-025-61599-z).
